Results reported in paper doi:10.1101/2021.10.13.464316 (bioRxiv, 2021).
Residue numbers refer to the chain shown, from its start. Read-outs that look alike come from different tables or passages of the source.

B1: GST–CAR5 (natural protein)
chain: MIVSFLYFSSLFPTSLRKINLVAGEKHKDRRMKPSLMDSLLGLLRIRIKRGVNLAVRDLNSSDPYVVVKMAKQKLKTRVIYKNVNPEWNEDLTLSVSDPNLTVLLTVYDYDTFTKDDKMGDAEFGIKPFVNALKMHLHDLPSGTIVTTVQPSRDNCLAEESRVIWSDGKLVQDIVLRLRHVECGEVEAQLQWIDLPGKGL
B2: GST–CAR9^3M (natural protein)
chain: MEDKPLGILRVHVKRGINLAIRDATAADPFVVITLANQKLKTRVINNNCNPVWNEQLTLSIKDVNDPIRLTVFDKDRFSGDDKMGDAEIDFRPFLEAHQMELDFQKLPNGCAIKRIRPGRTNCLAEESSITWSNGKIMQEMILRLKNVECGEVELMLEWTDGPGCKGLGREGSKKTPWMPTKRLD
B3: GST–CAR10 (natural protein)
chain: MDQKPLGLLTIHVKRGINLAIRDHRSSDPYIVLNVADQTLKTRVVKKNCNPVWNEEMTVAIKDPNVPIRLTVFDWDKFTGDDKMGDANIDIQPYLEALKMGMELLRLPNGCAIKRVQPSRHNCLSDESSIVWNNGKITQDLILRLNNVECGEIEIMLEWHEGAGCRGITSSSKGGGSSST
B4: GST–CAR9 (natural protein)
chain: B2 chain with A26T, A27S, F30Y
B5: GST–CAR6 (natural protein)
chain: MEKTEEEVEMKELVGLVRILVKRGIDLARRDALSSDPFVVITMGPQKLKSFTVKNNCNPEWNEELTLAIEDPNEPVKLMVYDKDTFTADDKMGDAQIDMKPFLDVHKLGLKELPHGKELKRIVPTRDNCLSEDSIIVSDNGKIVQDMILLLKNVECGKVEIQLEWLKNPGGSGL

How the values were obtained:
Assay in all cases: pull-down
6 × His-tagged FER–CD = 6 × His-tagged FER–CD (Arabidopsis thaliana, UniProt Q9SCZ4 469-895)
6 × His-tagged FER–CD, sequence (Q9SCZ4 469-895): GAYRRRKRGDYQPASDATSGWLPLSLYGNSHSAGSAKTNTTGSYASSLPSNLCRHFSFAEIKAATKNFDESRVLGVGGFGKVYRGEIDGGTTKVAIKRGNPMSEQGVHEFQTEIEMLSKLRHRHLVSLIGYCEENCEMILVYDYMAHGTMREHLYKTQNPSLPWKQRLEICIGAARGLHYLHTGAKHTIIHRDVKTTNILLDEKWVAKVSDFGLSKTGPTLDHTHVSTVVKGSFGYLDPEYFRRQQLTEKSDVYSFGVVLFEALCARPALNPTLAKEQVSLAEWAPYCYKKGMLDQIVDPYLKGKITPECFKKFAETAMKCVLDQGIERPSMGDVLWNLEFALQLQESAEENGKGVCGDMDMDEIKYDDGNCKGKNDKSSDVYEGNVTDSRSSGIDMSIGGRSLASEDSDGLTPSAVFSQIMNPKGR

[1] = target: T1, FER^K565R–CD–His (kinase dead form) (Arabidopsis thaliana, UniProt Q9SCZ4 469-895, K565R)
T1 sequence (Q9SCZ4 469-895 K565R): as the sequence (Q9SCZ4 469-895) above, with K97R counted along it

[2] = target: FER–CD (+ ATP) treated with CIP (Arabidopsis thaliana, UniProt Q9SCZ4 469-895)
FER–CD (+ ATP) treated with CIP, sequence (Q9SCZ4 469-895): as the sequence (Q9SCZ4 469-895) above

[3] = target: T1, FER^K565R–CD–His (kinase dead form); remark: listed apart in the source

Binder | binding result (6 × His-tagged FER–CD) | binding result [1] | binding result [2] | binding result [3]
B1 | binds |  |  | 
B2 |  | binds | binds | 
B3 | binds |  |  | 
B4 | binds |  |  | binds
B5 | binds |  |  | 
